Target: T1, TNF (125I-TNF) (human, UniProt P01375 77-233, limits assumed, radioiodinated (125I) where used as labeled ligand)
T1 construct: It may be the same FLAG-TNFα as m1; also called 125I-labeled TNF
Test: TNF binding assay on product of transfected COS-7 cells

T1 sequence (P01375 77-233 limits assumed): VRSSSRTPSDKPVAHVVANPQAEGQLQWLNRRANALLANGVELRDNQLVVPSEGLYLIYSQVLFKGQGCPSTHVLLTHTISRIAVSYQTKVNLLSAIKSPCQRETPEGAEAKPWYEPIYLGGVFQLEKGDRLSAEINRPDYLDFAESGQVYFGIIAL

B1: soluble huTNF-RΔ142 (receptor)
chain: LPAQVAFTPYAPEPGSTCRLREYYDQTAQMCCSKCSPGQHAKVFCTKTSDTVCDSCEDSTYTQLWNWVPECLSCGSRCSSDQVETQACTREQNRICTCRPGWYCALSKQEGCRLCAPLRKCRPGFGVARPGTETSDVVCKPC
notes: Transfected into COS-7 cells; also called huTNF-R?142; product of psolTNFRΔ142/CAVNOT
Question: Does B1 bind?
Answer: no binding

Reference: patent US20030082736A1 (IMMUNEX, published 2003)
